Laboratory results taken from PMC10797690, “The SIRT3-ATAD3A axis regulates MAM dynamics and mitochondrial calcium homeostasis in cardiac hypertrophy” (International Journal of Biological Sciences, 2024).

Target: T1, NAD+-dependent deacetylase Sirtuin 3 (SIRT3), protein used for SPR
T1 chain: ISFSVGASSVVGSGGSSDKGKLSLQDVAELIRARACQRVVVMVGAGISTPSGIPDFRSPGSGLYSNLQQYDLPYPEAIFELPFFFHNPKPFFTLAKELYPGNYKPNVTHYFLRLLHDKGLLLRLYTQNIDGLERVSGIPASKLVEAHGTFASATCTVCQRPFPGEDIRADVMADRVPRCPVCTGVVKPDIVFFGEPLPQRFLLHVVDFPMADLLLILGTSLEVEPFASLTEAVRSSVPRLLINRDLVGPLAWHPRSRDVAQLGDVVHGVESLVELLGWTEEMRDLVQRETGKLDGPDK
Assay: SPR; multicycle kinetics; which protein was immobilised is not told
Details: both partners purified

- Kd: 50.9 nM
B1: ATPase family AAA-domain containing protein 3A (ATAD3A), protein used for SPR (natural protein)
chain: SWLFGINKGPKGEGAGPPPPLPPAQPGAEGGGDRGLGDRPAPKDKWSNFDPTGLERAAKAARELEHSRYAKDALNLAQMQEQTLQLEQQSKLKEYEAAVEQLKSEQIRAQAEERRKTLSEETRQHQARAQYQDKLARQRYEDQLKQQQLLNEENLRKQEESVQKQEAMRRATVEREMELRHKNEMLRVEAEARARAKAERENADIIREQIRLKAAEHRQTVLESIRTAGTLFGEGFRAFVTDWDKVTATVAGLTLLAVGVYSAKNATLVAGRFIEARLGKPSLVRETSRITVLEALRHPIQVSRRLLSRPQDALEGVVLSPSLEARVRDIAIATRNTKKNRSLYRNILMYGPPGTGKTLFAKKLALHSGMDYAIMTGGDVAPMGREGVTAMHKLFDWANTSRRGLLLFVDEADAFLRKRATEKISEDLRATLNAFLYRTGQHSNKFMLVLASNQPEQFDWAINDRINEMVHFDLPGQEERERLVRMYFDKYVLKPATEGKQRLKLAQFDYGRKCSEVARLTEGMSGREIAQLAVSWQATAYASEDGVLTEAMMDTRVQDAVQQHQQKMCWLKAEGPGRGDEPSPS
